# Reference: patent US20180021429A1, “ANTICANCER AGENTS OR ANTIMETASTATIC AGENTS USING FSTL1 AND COMBINATION DRUG THEREOF” (PHARMA FOODS INTERNATIONAL CO., LTD., priority 2015, published 2018)
# T1: FSTL1 (Homo sapiens, UniProt Q12841)
# T1 sequence (Q12841 21-308): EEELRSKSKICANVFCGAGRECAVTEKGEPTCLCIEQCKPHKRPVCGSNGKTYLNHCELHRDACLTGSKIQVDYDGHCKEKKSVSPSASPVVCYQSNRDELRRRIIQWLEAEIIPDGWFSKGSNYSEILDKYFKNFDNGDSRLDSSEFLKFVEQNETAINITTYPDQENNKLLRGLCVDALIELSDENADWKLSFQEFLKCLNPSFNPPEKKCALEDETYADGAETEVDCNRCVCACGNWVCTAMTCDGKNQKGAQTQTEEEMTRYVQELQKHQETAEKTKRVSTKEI
# T2: human FSTL1 (Homo sapiens, UniProt Q12841)
# T2 construct: AAA linker + 10xHis (C); made in house; host or cells: Expi293 (transient expression; purified from culture supernatant on HisPur Cobalt Resin)
# T2 sequence (Q12841 with tags, fused parts or gaps): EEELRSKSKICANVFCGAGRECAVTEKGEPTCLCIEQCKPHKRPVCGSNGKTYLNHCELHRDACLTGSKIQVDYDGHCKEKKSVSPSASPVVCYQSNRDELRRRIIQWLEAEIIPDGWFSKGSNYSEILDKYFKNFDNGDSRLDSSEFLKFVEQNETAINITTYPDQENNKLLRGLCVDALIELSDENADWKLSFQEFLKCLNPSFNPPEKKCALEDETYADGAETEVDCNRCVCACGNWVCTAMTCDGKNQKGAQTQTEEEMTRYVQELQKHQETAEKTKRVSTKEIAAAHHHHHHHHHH
# B1: #33: chicken-mouse chimeric anti-FSTL1 antibody clone; variable regions SEQ ID NO: 823 (light), 825 (heavy) (antibody, V domains shown)
# VH: AVTLDESGGGLQTPGGGLSLVCKASGFTFSSFNMNWVRQAPGKGLEYVAEISGTGSSTYYGSAVKGRATISRDNGQSTVRLQLNNLRAEDTATYFCARGDGAYSIDAWGHGTEVIVSS
# VL: ASTQPSSVSANPGETVEITCSGDSSYYGWFQQKSPGSAPVTVIYDNTNRPSDIPSRFSGSKSGSTATLTITGVRAEDEAVYYCGGYDSSTYDGIFGAGTTLTVL
# modifications: mouse constant regions
# B2: #8-1: chicken-mouse chimeric anti-FSTL1 antibody clone; variable regions SEQ ID NO: 791 (light), 793 (heavy) (antibody, V domains shown)
# VH: AVTLDESGGGLQTPGGALSLVCKGSGFTFSSFNMFWVRQAPGKGLEWVAGIGKDGVPKYGAAVDGRATISKDNGQSTMRLQLNNLRAEDTGTYFCAKAAGGCSYDWCGIYAGDIDTWGHGTEVIVSS
# VL: ASTQPSSVSANPGEAVKITCSGGSGSYYGWYQQKSPGSAPVTVIYNNNQRPSDIPSRFSGSKSGSTATLTITGVQAEDEAVYFCGGYDSSSGHGGIFGAGTTLTVL
# modifications: mouse constant regions
# B3: #6-55: chicken-mouse chimeric anti-FSTL1 antibody clone; variable regions SEQ ID NO: 783 (light), 785 (heavy) (antibody, V domains shown)
# VH: AVTLDESGGGLQTPGGALSLVCKGSGFTFTSVTMQWVRQAPGKGLEWVASVCSGSSTYYAPAVKGRATISRDNGQSTVRLQLSNLRPEDTGTYYCAKIAGRARWSCTSAAYNIDAWGHGTEVIVSS
# VL: ASTQPSSVSAIPGETVKITCSGGGNNYGWYQQRSPGSAPVTVIYYNDNRPSNIPSRFSGSTSGSTSTLTITGVQADDEAIYYCGSWDSNTDSGIFGAGTTLTVL
# modifications: mouse constant regions
# B4: #7-34: chicken-mouse chimeric anti-FSTL1 antibody clone; variable regions SEQ ID NO: 787 (light), 789 (heavy) (antibody, V domains shown)
# VH: AVTLDESGGGLQTPGGGLSLVCKASGFTFSSVTMQWVRQAPGKGLEWVASICSGSSTYYGPAVKGRATISRDNGQNTVRLQLNNLRAEDTATYYCAKIVGRGRWSCTSAAYNIDAWGHGTEVIVSS
# VL: ASTQPSSVSANPGETVKITCSGGGNNYGWYQQKSPGSAPVTVIYYNNNRPSNIPSRFSGSTSGSTSTLTITGVQAEDEAVYYCGSYEGSTDSGIFGAGTTLTVL
# modifications: mouse constant regions
# B5: #13: chicken-mouse chimeric anti-FSTL1 antibody clone; variable regions SEQ ID NO: 815 (light), 817 (heavy) (antibody, V domains shown)
# VH: AVTLDESGGGLQTPGGGLSLVCKASGFTFSSVTMQWVRQAPGKGLEWVASICSGSSTYYGPAVKGRATISRDNGQNTVRLQLNNLRAEDTATYYCAKIVGRGRWSCTSAAYNIDAWGHGTEVIVSS
# VL: ASTQPSSVSANPGETVKITCSGGGNNYGWYQQKSPGSAPVTVIYNNNNRPSNIPSRFSGSKSGSTNTLTITGVQAEDEAVYYCGSYDSSSDSGIFGAGTTLTVL
# modifications: mouse constant regions
# Assays:
# [1] = system: C57/BL/6 mouse-derived bone marrow cells; test: MSC induction inhibition test using mouse bone marrow cells stimulated with FSTL1 (Example 27); format: cell-based; conditions: FSTL1 20 ng/mL, antibody 10 μg/mL, 8 days; flow cytometry; FIG. 115A
# Description: (§1) In this Example, the inhibitory activity of the anti-FSTL1 antibody was confirmed in an experimental system of mesenchymal stem cell induction while a FSTL1 inhibitory effect on MSC expansion induced not only by FSTL1 but by Snail+ tumor cells was also evaluated. For specific operation, each antibody (10 μg/mL) was added to systems in which C57/BL/6 mouse-derived bone marrow cells were stimulated with FSTL1 (20 ng/mL) or a culture supernatant of tumor cells. After culture for 8 days under stimulation, cell fraction CD45(−) cells (MSCs) containing MSCs at a high rate and CD45(−)CD146(+)ALCAM(+) cells (sMSCs) increasing in number in association with cancer metastasis were analyzed by flow cytometry in the same way as in Example 14, and the number of cells per culture system was counted. In this Example, mouse immunoglobulin manufactured by BioLegend, Inc. (#401408, Cone MG1-45) was used as a control antibody.
# FSTL1 = target: T1, FSTL1; test: as above; format: cell-based; parameters: purchased R&D Systems, Inc. 1694-FN-050; conditions: FSTL1 20 ng/mL, antibody 10 μg/mL, 8 days
# Description: as §1, with “([…],” for “(#401408,”
# as §1
# [2] = system: GFP-positive and Snail-positive B16-F10 tumor cells; test: In vivo, intraperitoneal administration, Snail-positive B16-F10 bone metastasis model (Example 18); parameters: species or system mouse; conditions: intraperitoneal 10 mg/kg on days 5 and 10; day 14
# From the text: 1. Experiment Group (n=5) • 1. No treatment (0.9% NaCl as a sham) • 2. Control IgG (anti-DNP) • 3. Anti-FSTL1 Clone #6-55 • 4. Anti-FSTL1 Clone #7-34 • 5. Anti-FSTL1 Clone #8-1 […]
# • Effects on the growth of subcutaneous tumor (calculation of tumor volume by tumor size measurement): measured 7, 11, and 14 days after tumor implantation (FIG. 42B) • Effects on bone metastasis (GFP-positive tumor cells in bone marrow or the spleen) (FIGS. 42A and 42C) • Effects on MSC expansion (CD45-negative cells in bone marrow or the spleen) (FIGS. 42A and 42C) • Effects on weight loss (FIG. 42A) • Effects on the expansion of immunosuppressive Treg cells (CD4-positive and Foxp3-positive cells in the spleen) (FIG. 42C) • Other immunosuppressive properties (FIG. 42C)
# In Example 17, the antibody was administered into tumor according to the purpose of “inhibiting metastasis from a primary focus to bone” as previously conducted by the present inventors. […] Specifically, antitumor effects and immunosuppression-mitigating effects were comparatively analyzed by the intraperitoneal administration (systemic administration) of the anti-FSTL1 antibody using bone metastasis models in which mouse melanoma cells (B16-F10) forced to express Snail were subcutaneously and intravenously transplanted in C57BL/6N mice. […]
# human FSTL1 = target: T2, human FSTL1; test: ELISA binding activity of purified antibody against human FSTL1 (Example 2); conditions: FIG. 1B/31B
# Description: The reactivity of the obtained antibody clones described above with FSTL1 was evaluated by ELISA under the following conditions.
# (Table 2 ELISA conditions for binding activity evaluation of purified antibody) Antibodies used: anti-dinitrophenyl (DNP) antibody (negative control), #5-2, #5-3, #5-8, #5-10, #5-43, #6-55, and #7-34
# FIGS. 2 and 3 show results of evaluating binding activity under the condition of Table 3 as to clones differing in screening and antibody purification timings.
# Antibodies used: anti-dinitrophenyl (DNP) antibody (negative control), #5-2, #5-3, #5-8, #5-10, #5-43, #6-55, and #7-34
# FIGS. 32 and 33 show results of evaluating binding activity under the condition of Table 3 as to clones differing in screening and antibody purification timings.
Molecule,MSC induction inhibitory effect [1],"MSC induction inhibitory activity, reproducibility confirmed (FSTL1)","inhibitory effect in the MSC induction inhibition test (CD45(−) MSCs and sMSCs, flow cytometry) (FSTL1)",effect on weight loss (mouse body weight) [2],binding activity against human FSTL1 (human FSTL1)
B1,strong inhibitory effect equivalent to or higher than that of #6-55,high MSC induction inhibitory activity equivalent to or higher than that of #6-55,strong inhibitory effect equivalent to or higher than that of #6-55,,
B2,,,,anti-weight loss effect,
B3,,,,anti-weight loss effect,specific and equivalently strong binding activity
B4,,,,,specific and equivalently strong binding activity
B5,strong inhibitory effect equivalent to or higher than that of #6-55,,strong inhibitory effect equivalent to or higher than that of #6-55,,
